Measurements from patent publication US20230212587A1, “Mutant Hydroxyphenylpyruvate Dioxygenase Polypeptide, Encoding Gene Thereof and Use Therefor” (Beijing Dabeinong Biotechnology Co., Ltd., priority 2019, published 2023).
Positions count from the first letter of the chain named. Names may count otherwise.

B1: OsHPPD-02: native Oryza sativa HPPD, SEQ ID NO: 69 (protein, listed as Oryza sativa)
chain: MPPTPTPTATTGAVSAAAAAGENAGFRLVGHRRFVRANPRSDRFQALAFHHVELWCADAASAAGRFAFALGAPLAARSDLSTGNSAHASLLLRSASVAFLFTAPYGGDHGVGADAATTASIPSFSPGAARRFAADHGLAVHAVALRVADAADAFRASVAAGARPAFQPADLGGGFGLAEVELYGDVVLRFVSHPDGADAPFLPGFEGVSNPGAVDYGLRRFDHVVGNVPELAPVAAYISGFTGFHEFAEFTAEDVGTAESGLNSVVLANNAETVLLPLNEPVHGTKRRSQIQTYLDHHGGPGVQHIALASDDVLGTLREMRARSAMGGFEFLAPPPPNYYDGVRRRAGDVLSEEQINECQELGVLVDRDDQGVLLQIFTKPVGDRPTFFLEMIQRIGCMEKDESGQEYQKGGCGGFGKGNFSELFKSIEEYEKSLEAKQAPTVQGS
modifications: OsHPPD Amino Acid Sequence
B2: OsHPPDm-F372A-02: Oryza sativa HPPD mutant F372A, SEQ ID NO: 72 (protein)
chain: B1 chain with F378A
modifications: OsHPPDm-F372A Amino Acid Sequence
B3: AtHPPD: native Arabidopsis thaliana HPPD, SEQ ID NO: 23 (protein, listed as Arabidopsis thaliana)
chain: MGHQNAAVSENQNHDDGAASSPGFKLVGFSKFVRKNPKSDKFKVKRFHHIEFWCGDATNVARRFSWGLGMRFSAKSDLSTGNMVHASYLLTSGDLRFLFTAPYSPSLSAGEIKPTTTASIPSFDHGSCRSFFSSHGLGVRAVAIEVEDAESAFSISVANGAIPSSPPIVLNEAVTIAEVKLYGDVVLRYVSYKAEDTEKSEFLPGFERVEDASSFPLDYGIRRLDHAVGNVPELGPALTYVAGFTGFHQFAEFTADDVGTAESGLNSAVLASNDEMVLLPINEPVHGTKRKSQIQTYLEHNEGAGLQHLALMSEDIFRTLREMRKRSSIGGFDFMPSPPPTYYQNLKKRVGDVLSDDQIKECEELGILVDRDDQGTLLQIFTKPLGDRPTIFIEIIQRVGCMMKDEEGKAYQSGGCGGFGKGNFSELFKSIEEYEKTLEAKQLVG
modifications: Arabidopsis thaliana HPPD Amido Acid Sequence
B4: AtHPPDm-F372A: Arabidopsis thaliana HPPD mutant F372A, SEQ ID NO: 25 (protein)
chain: B3 chain with F381A
modifications: AtHPPDm-F372A Amino Acid Sequence
B5: GsHPPD-02: native Gossypium hirsutum HPPD, SEQ ID NO: 33 (protein, listed as Gossypium hirsutum)
chain: MVQTNQSGSGNDFKLVGFSNFVRSNPKSDRFTVKRFHHIEFWCTDATNVARRFSWGLGMQFVAKSDLSTGNLTHASYLLRSRDLNFLFTAPYSPSIAVAQNLSPQSTASIPSFDHSLCRSFAATHGLGVRAIAIEVDDAETAFTTSVTHGALPFCPPTPLGDVATIAEVKLYGDVVLRYVSYTTTINSDHDFLPGFEKIEDTLSYPLDYGLRRLDHAVGNVPELGPAVSYVKSFTGFHEFAEFTAEDVGTSESGLNSVVLANNEEMVLLPMNEPVFGTKRKSQIQTYLEHNEGAGVQHLALVSEDIFKTLREMRKRSFVGGFEFMPSPPPTYYKKLKQRAGDILSDEQIKECEELGILVDRDDQGTLLQIFTKPVGDRPTIFIEIIQRIGCMVKDEEGKQYQKGGCGGFGKGNFSELFKSIEEYEKSLEAKQSQNP
modifications: GsHPPD Amino Acid Sequence
B6: GsHPPDm-F372A-02: Gossypium hirsutum HPPD mutant F372A, SEQ ID NO: 36 (protein)
chain: B5 chain with F371A
modifications: GsHPPDm-F372A Amino Acid Sequence
B7: SbHPPD-02: native Sorghum bicolor HPPD, SEQ ID NO: 63 (protein)
chain: MPPTPTTAAATGAAVAAASAEQAAFRLVGHRNFVRVNPRSDRFHTLAFHHVELWCADAASAAGRFSFGLGAPLAARSDLSTGNTAHASLLLRSGALAFLFTAPYAHGADAATASLPSFSAAEARRFAADHGLAVRAVALRVADAEDAFRASVAAGARPAFEPVELGLGFRLAEVELYGDVVLRYVSYPDDADASFLPGFVGVTSPGAADYGLRRFDHIVGNVPELAPAAAYFAGFTGFHEFAEFTAEDVGTTESGLNSMVLANNAENVLLPLNEPVHGTKRRSQIQTYLDHHGGPGVQHMALASDDVLRTLREMQARSAMGGFEFMAPPAPEYYDGVRRRAGDVLTEAQIKECQELGVLVDRDDQGVLLQIFTKPVGDRPTLFLEIIQRIGCMEKDEKGQEYQKGGCGGFGKGNFSQLFKSIEDYEKSLEAKQAAAAQGS
modifications: Sorghum bicolor; SbHPPD Amino Acid Sequence
B8: SbHPPDm-F372A-02: Sorghum bicolor HPPD mutant F372A, SEQ ID NO: 66 (protein)
chain: B7 chain with F372A
modifications: SbHPPDm-F372A Amino Acid Sequence

Test system: Arabidopsis thaliana T1 plants
Test: Topramezone tolerance of transgenic Arabidopsis thaliana T1 plants (pesticide damage grade by bleached leaf area, score, resistance evaluation)
Format: in vivo
Conditions: HPPDs from different species, 7 DAT; for Classification and statistics of pesticide damage grade Grade 0 / Classification and statistics of pesticide damage grade Grade 1 / Classification and statistics of pesticide damage grade Grade 2 / Classification and statistics of pesticide damage grade Grade 3: number of plants (of 16) in this grade; for Scores: score for pesticide damage 0-100
How it was run: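 Eighteen days after sowing, wild-type and HPPD-transgenic T1 Arabidopsis receive a topramezone spray at 1×, 2× or 4× field rate (25–100 g ai/ha) or water. Seven days later each plant is graded by its proportion of bleached leaf area.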

Molecule | Classification and statistics of pesticide damage grade Grade 0 (topramezone 25 g ai/ha (1x)) | Classification and statistics of pesticide damage grade Grade 1 (topramezone 25 g ai/ha (1x)) | Classification and statistics of pesticide damage grade Grade 2 (topramezone 25 g ai/ha (1x)) | Classification and statistics of pesticide damage grade Grade 3 (topramezone 25 g ai/ha (1x)) | Classification and statistics of pesticide damage grade Grade 0 (topramezone 100 g ai/ha (4x)) | Classification and statistics of pesticide damage grade Grade 1 (topramezone 100 g ai/ha (4x)) | Classification and statistics of pesticide damage grade Grade 2 (topramezone 100 g ai/ha (4x)) | Classification and statistics of pesticide damage grade Grade 3 (topramezone 100 g ai/ha (4x)) | Scores (topramezone 25 g ai/ha (1x)) | Scores (topramezone 100 g ai/ha (4x)) | Resistance evaluation (topramezone 25 g ai/ha (1x)) | Resistance evaluation (topramezone 100 g ai/ha (4x))
B1 | 0 | 0 | 0 | 16 | 0 | 0 | 0 | 16 | 100 | 100 | non-resistant (non-resistant plants (scores 68-100)) | non-resistant (non-resistant plants (scores 68-100))
B2 | 8 | 8 | 0 | 0 | 0 | 0 | 0 | 16 | 17 | 100 | moderately resistant (moderately resistant plants (scores 16-33)) | non-resistant (non-resistant plants (scores 68-100))
B3 | 0 | 0 | 0 | 16 | 0 | 0 | 0 | 16 | 100 | 100 | non-resistant (non-resistant plants (scores 68-100)) | non-resistant (non-resistant plants (scores 68-100))
B4 | 4 | 4 | 8 | 0 | 0 | 0 | 4 | 12 | 42 | 92 | poorly resistant (poorly resistant plants (scores 34-67)) | non-resistant (non-resistant plants (scores 68-100))
B5 | 0 | 0 | 0 | 16 | 0 | 0 | 0 | 16 | 100 | 100 | non-resistant (non-resistant plants (scores 68-100)) | non-resistant (non-resistant plants (scores 68-100))
B6 | 16 | 0 | 0 | 0 | 0 | 0 | 0 | 16 | 0 | 100 | highly resistant (highly resistant plants (scores 0-15)) | non-resistant (non-resistant plants (scores 68-100))
B7 | 0 | 0 | 0 | 16 | 0 | 0 | 0 | 16 | 100 | 100 | non-resistant (non-resistant plants (scores 68-100)) | non-resistant (non-resistant plants (scores 68-100))
B8 | 16 | 0 | 0 | 0 | 4 | 4 | 8 | 0 | 0 | 42 | highly resistant_ (highly resistant plants (scores 0-15)) | poorly resistant (poorly resistant plants (scores 34-67))
